Test results published in patent US20110300138A1 (published 2011).
Where two headings read alike, the source gives them in different places.

How the values were obtained:
TSHR260-AP (human) [1] = test: TSHR260-AP bridge ELISA (full length TSHR on wells, TSHR260-AP in solution); IgG 0.5 µg/mL diluted in HBD serum
[2] = molecular target: TSHR260-alkaline phosphatase (TSHR260-AP) (human) (UniProt P05187); test: TSHR260-AP bridge ELISA, full length TSHR on wells; 1 µg/mL, diluted in HBD
TSHR260-AP (human) [3] = test: TSHR260-AP bridge ELISA (full length TSHR on wells, TSHR260-AP in solution); IgG 10 µg/mL diluted in assay buffer
TSHR260-AP (human) [4] = test: TSHR260-AP bridge ELISA (full length TSHR on wells, TSHR260-AP in solution); IgG 0.1 µg/mL diluted in HBD serum
TSHR260-AP (human) [5] = test: TSHR260-AP bridge ELISA (full length TSHR on wells, TSHR260-AP in solution); IgG 0.005 µg/mL diluted in HBD serum
TSHR260-AP (human) [6] = test: TSHR260-AP bridge ELISA (full length TSHR on wells, TSHR260-AP in solution); IgG 250 µg/mL diluted in assay buffer
[7] = molecular target: TSHR260-alkaline phosphatase (TSHR260-AP) (human) (UniProt P05187); test: TSHR260-AP bridge ELISA, full length TSHR on wells; 10 µg/mL, diluted in HBD
[8] = molecular target: TSHR260-alkaline phosphatase (TSHR260-AP) (human) (UniProt P05187); test: TSHR260-AP bridge ELISA, full length TSHR on wells; 250 µg/mL, diluted in assay buffer
[9] = molecular target: TSHR260-alkaline phosphatase (TSHR260-AP) (human) (UniProt P05187); test: TSHR260-AP bridge ELISA, full length TSHR on wells; 0.05 µg/mL, diluted in assay buffer
[10] = molecular target: human TSHR (wild type, full length) expressed in CHO cells (human) (UniProt P16473); test: cell-based or functional assay
TSHR260-AP (human) [11] = test: TSHR260-AP bridge ELISA (full length TSHR on wells, TSHR260-AP in solution); IgG 10 µg/mL diluted in HBD serum
[12] = molecular target: TSHR260-alkaline phosphatase (TSHR260-AP) (human) (UniProt P05187); test: TSHR260-AP bridge ELISA, full length TSHR on wells; 0.5 µg/mL, diluted in HBD
[13] = molecular target: TSHR260-alkaline phosphatase (TSHR260-AP) (human) (UniProt P05187); test: TSHR260-AP bridge ELISA, full length TSHR on wells; 250 µg/mL, diluted in HBD
[14] = molecular target: human TSH receptor (full length, wild type) expressed in CHO cells (human) (UniProt P16473); test: cell-based or functional assay
[15] = molecular target: human TSHR (wild type, full length) expressed in CHO cells (human) (UniProt P16473); test: cell-based or functional assay; remark: listed apart in the source
[16] = molecular target: TSHR260-alkaline phosphatase (TSHR260-AP) (human) (UniProt P05187); test: TSHR260-AP bridge ELISA, full length TSHR on wells; 0.1 µg/mL, diluted in HBD
TSHR260-AP (human) [17] = test: TSHR260-AP bridge ELISA (full length TSHR on wells, TSHR260-AP in solution); IgG 100 µg/mL diluted in HBD serum
TSHR260-AP (human) [18] = test: TSHR260-AP bridge ELISA (full length TSHR on wells, TSHR260-AP in solution); IgG 0.005 µg/mL diluted in assay buffer
[19] = molecular target: TSHR260-alkaline phosphatase (TSHR260-AP) (human) (UniProt P05187); test: TSHR260-AP bridge ELISA, full length TSHR on wells; 0.5 µg/mL, diluted in assay buffer
[20] = molecular target: human TSHR (thyroid stimulating hormone receptor) expressed in transfected CHO cells (human) (UniProt P16473); test: cell-based or functional assay
[21] = molecular target: TSHR260-alkaline phosphatase (TSHR260-AP) (human) (UniProt P05187); test: TSHR260-AP bridge ELISA, full length TSHR on wells; 0.01 µg/mL, diluted in HBD
[22] = molecular target: TSHR260-alkaline phosphatase (TSHR260-AP) (human) (UniProt P05187); test: TSHR260-AP bridge ELISA, full length TSHR on wells; 10 µg/mL, diluted in assay buffer
TSHR260-AP (human) [23] = test: TSHR260-AP bridge ELISA (full length TSHR on wells, TSHR260-AP in solution); IgG 1 µg/mL diluted in assay buffer
[24] = molecular target: human TSH receptor (full length, wild type) expressed in CHO cells (human) (UniProt P16473); test: cell-based or functional assay; remark: listed apart in the source

5B3 IgG (antibody)
Mean absorbance at 405 nm (absorbance at 405 nm) (TSHR260-AP (human) [1]): -0.001 | Mean absorbance at 405 nm (absorbance at 405 nm) [2]: 0.049 | Mean absorbance at 405 nm (absorbance at 405 nm) (TSHR260-AP (human) [3]): -0.014 | Mean absorbance at 405 nm (absorbance at 405 nm) (TSHR260-AP (human) [4]): -0.002 | Mean absorbance at 405 nm (absorbance at 405 nm) (TSHR260-AP (human) [5]): -0.002 | Mean absorbance at 405 nm (absorbance at 405 nm) (TSHR260-AP (human) [6]): 0.018 | Mean absorbance at 405 nm (absorbance at 405 nm) [7]: -0.006 | Mean absorbance at 405 nm (absorbance at 405 nm) [8]: 0.018 | Mean absorbance at 405 nm (absorbance at 405 nm) [9]: -0.009 | % Inhibition of T8 serum stimulation; 0.1 µg/mL 5B3 IgG [10]: 3% | % Inhibition of T8 serum stimulation; 1 µg/mL 5B3 IgG [10]: 2% | % Inhibition of T8 serum stimulation; 10 µg/mL 5B3 IgG [10]: 0% | % Inhibition of T8 serum stimulation; 100 µg/mL 5B3 IgG [10]: 3% | Cyclic AMP concentration; 0.1 µg/mL 5B3 IgG + T8 [10]: 50.7 pmol/mL | Cyclic AMP concentration; 1 µg/mL 5B3 IgG + T8 [10]: 51.4 pmol/mL | Cyclic AMP concentration; 10 µg/mL 5B3 IgG + T8 [10]: 56 pmol/mL | Cyclic AMP concentration; 100 µg/mL 5B3 IgG + T8 [10]: 50.5 pmol/mL | Cyclic AMP concentration; 100 µg/mL 5B3 IgG alone [10]: 2.1 pmol/mL | Mean absorbance at 405 nm (absorbance at 405 nm) (TSHR260-AP (human) [11]): -0.006 | Mean absorbance at 405 nm (absorbance at 405 nm) [12]: -0.001 | Mean absorbance at 405 nm (absorbance at 405 nm) [13]: 0.012 | % Inhibition; T1 serum + 100 µg/mL 5B3 IgG [14]: 4.9% | % Inhibition; T2 serum + 100 µg/mL 5B3 IgG [14]: 0% | % Inhibition; T3 serum + 100 µg/mL 5B3 IgG [14]: 14.4% | Cyclic AMP concentration; 100 µg/mL 5B3 IgG alone [14]: 1 pmol/mL | Cyclic AMP concentration; HBD + 100 µg/mL 5B3 IgG [14]: 2 pmol/mL | Cyclic AMP concentration; T1 serum + 100 µg/mL 5B3 IgG [14]: 94.9 pmol/mL | Cyclic AMP concentration; T2 serum + 100 µg/mL 5B3 IgG [14]: 62 pmol/mL | Cyclic AMP concentration; T3 serum + 100 µg/mL 5B3 IgG [14]: 54.2 pmol/mL | % Inhibition of T5 serum stimulation; 0.1 µg/mL 5B3 IgG [15]: 7% | % Inhibition of T5 serum stimulation; 1 µg/mL 5B3 IgG [15]: 4.1% | % Inhibition of T5 serum stimulation; 10 µg/mL 5B3 IgG [15]: 3.1% | % Inhibition of T5 serum stimulation; 100 µg/mL 5B3 IgG [15]: 12.5% | Cyclic AMP concentration; 0.1 µg/mL 5B3 IgG + T5 [15]: 59.4 pmol/mL | Cyclic AMP concentration; 1 µg/mL 5B3 IgG + T5 [15]: 61.3 pmol/mL | Cyclic AMP concentration; 10 µg/mL 5B3 IgG + T5 [15]: 61.9 pmol/mL | Cyclic AMP concentration; 100 µg/mL 5B3 IgG + T5 [15]: 55.9 pmol/mL | Cyclic AMP concentration; 100 µg/mL 5B3 IgG alone [15]: 1.1 pmol/mL | Mean absorbance at 405 nm (absorbance at 405 nm) [16]: -0.002 | Mean absorbance at 405 nm (absorbance at 405 nm) (TSHR260-AP (human) [17]): 0.003 | Mean absorbance at 405 nm (absorbance at 405 nm) (TSHR260-AP (human) [18]): -0.012 | Mean absorbance at 405 nm (absorbance at 405 nm) [19]: -0.006 | Cyclic AMP concentration; 3 ng/mL M22 IgG + 10 µg/mL 5B3 IgG [20]: 21.6 pmol/mL | Cyclic AMP concentration; 3 ng/mL M22 IgG + 100 µg/mL 5B3 IgG [20]: 28.1 pmol/mL | Cyclic AMP concentration; 100 µg/mL 5B3 IgG [20]: 1.1 pmol/mL | Mean absorbance at 405 nm (absorbance at 405 nm) [21]: 0.027 | Mean absorbance at 405 nm (absorbance at 405 nm) [22]: -0.014 | Mean absorbance at 405 nm (absorbance at 405 nm) (TSHR260-AP (human) [23]): -0.004 | % Inhibition; T10 serum + 100 µg/mL 5B3 IgG [24]: 0% | % Inhibition; T11 serum + 100 µg/mL 5B3 IgG [24]: 3.2% | % Inhibition; T12 serum + 100 µg/mL 5B3 IgG [24]: 0% | Cyclic AMP concentration; 100 µg/mL 5B3 IgG alone [24]: 2 pmol/mL | Cyclic AMP concentration; HBD + 100 µg/mL 5B3 IgG [24]: 2.4 pmol/mL | Cyclic AMP concentration; T10 serum + 100 µg/mL 5B3 IgG [24]: 59.3 pmol/mL | Cyclic AMP concentration; T11 serum + 100 µg/mL 5B3 IgG [24]: 39.7 pmol/mL | Cyclic AMP concentration; T12 serum + 100 µg/mL 5B3 IgG [24]: 43.3 pmol/mL
